# Test results taken from publication doi:10.1101/2021.08.28.458030.
# T1: Human fumarase (human), P07954
# T1 chain: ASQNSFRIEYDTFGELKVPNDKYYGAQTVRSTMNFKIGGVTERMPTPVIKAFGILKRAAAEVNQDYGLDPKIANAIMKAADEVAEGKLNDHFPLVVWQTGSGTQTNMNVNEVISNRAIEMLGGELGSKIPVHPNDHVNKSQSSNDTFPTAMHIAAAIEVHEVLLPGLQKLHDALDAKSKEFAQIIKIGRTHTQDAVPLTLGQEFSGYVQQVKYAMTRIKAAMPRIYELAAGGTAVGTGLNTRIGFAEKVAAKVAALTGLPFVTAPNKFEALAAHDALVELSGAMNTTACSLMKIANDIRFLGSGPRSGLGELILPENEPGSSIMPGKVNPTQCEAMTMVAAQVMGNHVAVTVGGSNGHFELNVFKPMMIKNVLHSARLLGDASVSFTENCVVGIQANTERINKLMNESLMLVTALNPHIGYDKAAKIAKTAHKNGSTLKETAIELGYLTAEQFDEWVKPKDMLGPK
# B1: Human fumarase, P07954 45-510 (enzyme)
# chain: T1 chain
# Molecular target: T1, Human fumarase (human), P07954
# Test: crystal structure
# Details: remark: other sources report otherwise
binder,measurement,value
B1,stoichiometry N,4
